Variants at the floor of the assay were thinned out.
B1: TPR 5TU (parent)
chain: GGAUCUUCUCGAUCUAACAAAAAAGACAAAUCUGCCACAAAGCUUGAGAGCAUCUUCGGAUGCAGAGGCGGCAGCCUUCGGUGGCGCGAUAGCGCCAACGUUCUCAACUAUGACACGCAAAACGCGUGCUCCGUUGAAUGGAGUUUAUCAUG

Variants of: B1
Assay: polymerase ribozyme fitness, log enrichment relative to wild type (log ratio); higher = more active; in vitro selection for triplet polymerase activity
Method in brief: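 Fitness measures genotype enrichment against wild-type enrichment on a logarithmic scale, with inverse-variance-weighted averaging of replicates. The logarithm is base 2, and genotypes were kept only with ≥10 input reads and ≥1 read per output in Illumina sequencing. The sequenced libraries came from one triplicate in vitro selection round, including frozen incubation at −7 °C, of PCR-built, transcribed mutant libraries of each subunit of a heterodimeric triplet polymerase ribozyme.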

Row | Variant | polymerase ribozyme fitness (log ratio)
1 | A89G A98G G143C | -3.66
2 | A89G G126U U148G | -4.06
3 | C87A G133C U145C U146C | ≤ -4.2
4 | G86C U109G C118G | -3.5
5 | A89U C99G G126A C132G | -4.08
6 | G86C C96U | -2.67
7 | C87U C123U C149G | -2.65
8 | G88A G136A | -3.83
9 | C87U A115U G140U | -4.19
10 | G88A A89G | -3.67
11 | C87A C125U A137U | ≤ -4.2
12 | U90C C95A U102A C132A | ≤ -4.2
13 | C87U A142G | -0.623
14 | C87U A150C | -3.7
15 | G88C C114U G141U | ≤ -4.2
16 | G88C C93G U102C G124A | ≤ -4.2
17 | C87U U146G | -0.864
18 | A91C A97G U109C A142C | ≤ -4.2
19 | G86U A107G G143C U151A | ≤ -4.2
20 | G86A C118U G141C | -1.77
21 | U90A C99U C103G G140A | ≤ -4.2
22 | G88C A147C G152U | ≤ -4.2
23 | G86U C93G | -1.28
24 | A89U A91U | ≤ -4.2

Row | Variant | polymerase ribozyme fitness (log ratio)
25 | C87U C108U | -3.61
26 | U90C C99G A138G | ≤ -4.2
27 | C87U G88U | ≤ -4.2
28 | G88C C95U | ≤ -4.2
29 | C87G G141C | -3.99
30 | C87U A110G G112U | ≤ -4.2
31 | C87G C149U | ≤ -4.2
32 | G86U U90G A98U G143C | ≤ -4.2
33 | A89G G92U | -2.48
34 | A89C C99U C114U | -2.63
35 | G88A C105A A147C U151G | ≤ -4.2
36 | C87A A91G G152U | -4.13
37 | C87A U151G | ≤ -4.2
38 | C87U G100U C114U | ≤ -4.2
39 | A89G C125U C132U | -1.73
40 | G88U G141U | -3.23
41 | G88U U130A A147C | ≤ -4.2
42 | C87A C93A C95G A121U U127G G140A | ≤ -4.2
43 | C87A C123A A150U | -3.19
44 | A89G A98U | -1.66
45 | A91C A150G | ≤ -4.2
46 | A89C C123A G128U | -3.31
47 | G88C A137U G143A | ≤ -4.2
48 | G86C C131U | -2.55

Row | Variant | polymerase ribozyme fitness (log ratio)
49 | C87A U90C G117C | -3.77
50 | C87U A97U | -2.25
51 | A91C A107U | ≤ -4.2
52 | C87A C93G C114U G141C | ≤ -4.2
53 | A89C U148C | -3.51
54 | G86C U104A | -2.46
55 | A89G G94A G100C | ≤ -4.2
56 | C87G U139A | ≤ -4.2
57 | A89C C103A | -2.11
58 | G88C C105G G128C A142C | ≤ -4.2
59 | A89U C123U | 0.89
60 | G86U U104A G117C | -2.37
61 | C87U C118G | -1.33
62 | U90C G94U G124A C125U | -4
63 | C87A G112C C116G | ≤ -4.2
64 | A91C A120C | ≤ -4.2
65 | G86C U145C | -3.66
66 | A89U A150G | -0.42
67 | A89U A150U | 1.51
68 | C87G A98G | ≤ -4.2
69 | C87G A98U | -3.64
70 | C87A A150G | ≤ -4.2
71 | C87U A137G U148C | -3.87
72 | U90C C99U | ≤ -4.2

Row | Variant | polymerase ribozyme fitness (log ratio)
73 | C87U G140U | -3.68
74 | A89C C93U G136C | ≤ -4.2
75 | C87A U90G U134G | ≤ -4.2
76 | G86U A137G | -3.03
77 | A91C C96A A120U A122C G143U | -4.07
78 | A89C C93G C96U U148G | ≤ -4.2
79 | G86U A89U A113U C131G | ≤ -4.2
80 | G86C C105U | -1.5
81 | G86U G100U | ≤ -4.2
82 | G86C G92A | ≤ -4.2
83 | C87U U90C C99G | -3.53
84 | A89C | -0.82
85 | A89G | -0.999
86 | A89U | -0.292
87 | C87U C96G A113U | -2.85
88 | C87U A91G C105G | -4.02
89 | C87U A106G | -0.549
90 | C87U C116A | 1.21
91 | G88C G100C A106G U146C | ≤ -4.2
92 | A89U A142C U146C A150U | -3.99
93 | U90A G92C A142G | ≤ -4.2
94 | A89U C103U A106C G117A | -2.14
95 | G88A U144G | -3.35
96 | G88U C99A | -4.1

Row | Variant | polymerase ribozyme fitness (log ratio)
97 | G88U C99U | -4.12
98 | A91C C108G A120U | ≤ -4.2
99 | A89U U148G | -3.92
100 | C87G A142G | -4.14
101 | U90A A91C U102G U151G | ≤ -4.2
102 | C87U C118U G143C | -2.54
103 | G86U C125U | -2.02
104 | C87U C132U | -1.11
105 | C87U C132G | -3.72
106 | G86A U102G | -4.05
107 | C87A G124U | ≤ -4.2
108 | C87U A150G G152U | ≤ -4.2
109 | G86U G143A | -2.53
110 | A89G C125A | -1.77
111 | G88C A115U G117U C131G U135G | ≤ -4.2
112 | C87G C105U A137C A150U | ≤ -4.2
113 | C87U A115U | -1.73
114 | C87G U104G | ≤ -4.2
115 | C87A C96U C99G U111C C125A | ≤ -4.2
116 | A89C G94C | -1.57
117 | G86U U104G C116A | -2.52
118 | U90A G94U C95U C116G C118G C123G | ≤ -4.2
119 | C87G C116U | -3.77
120 | A89C C125A | -1.13

Row | Variant | polymerase ribozyme fitness (log ratio)
121 | G86A G143A | -1.25
122 | G86A G143C | -2.14
123 | G86A G143U | -3.07
124 | C87U G152C | -3.17
125 | C87G G112U | ≤ -4.2
126 | C87U C103U | -0.658
127 | C87U C103G | -2.13
128 | A89C C95U | -1.49
129 | A89C C95G | -3.24
130 | C87A C93U C95U G100A C116U A121G C129A U130G | ≤ -4.2
131 | U90A C125G A147C U148C | -3.99
132 | C87A G140C | ≤ -4.2
133 | G86U C118U | -1.69
134 | G86A C149A | ≤ -4.2
135 | C87G G152U | -3.57
136 | A89U U109G | -0.917
137 | G86C C116U | -2.44
138 | G86A C87G | -3.97
139 | G86A A150G | -3.09
140 | G86A A150C | ≤ -4.2
141 | G86A A142C | -2.27
142 | G86U A142G | -2.35
143 | C87G G140C | ≤ -4.2
144 | C87U A91U A98G A138G G152A | ≤ -4.2

Row | Variant | polymerase ribozyme fitness (log ratio)
145 | A89U A91U C93U C95A | ≤ -4.2
146 | U90G G100A C116U | ≤ -4.2
147 | G86C A98C | -1
148 | A91C A142C | ≤ -4.2
149 | G86A C116G A150C | -3.93
150 | U90G G126U A147U | -3.95
151 | G88C C108G | ≤ -4.2
152 | G88C G143C | -3.92
153 | G86U U90G C103A A119C A121C A138C | ≤ -4.2
154 | G86U U102G A150U | -3.59
155 | C87U C105G A121U A122U | -1.19
156 | A89G C99G C116A | -1.92
157 | G88C A97C A110G | ≤ -4.2
158 | C87G A110C U146G C149A | ≤ -4.2
159 | G88A A110G | ≤ -4.2
160 | C87A G92U | 0.159
161 | A89G A122C | -1.77
162 | A89C A150G | -0.921
163 | C87U G141U | 0.462
164 | A91C C95U C103G C116G | ≤ -4.2
165 | A89C U130A | -3.07
166 | C87A A106U | -4.18
167 | A89G G92U C125U U146C | -1.03

— the RNAGym collection of RNA variant scans (doi:10.1073/pnas.2313332121)
